This data set deals with O=C[C@H](O)COP(=O)(O)O. Put plainly: Coupled alpha-glycerol-3-phosphate dehydrogenase assay following NADH decrease at 340 nm at 25°C in 100 mM triethanolamine/10 mM EDTA, pH 7.4, with 0.2 mM NADH and GAP varied from 0.3 to 3 mM, fitted to the Michaelis-Menten equation by non-linear regression. It counts as biochemical. On the procedure: Glyceraldehyde 3-phosphate (GAP), buffers, salts and all the other analytical grade reagents were acquired from Sigma–Aldrich; α-glycerol-3-phosphate dehydrogenase (α-GDH) was from Roche, crystallization screen kits were obtained from Hampton Research. Restriction enzymes, DNA polymerase and T4 DNA ligase were purchased from New England BioLabs and Invitrogene. Oligonucleotide synthesis and DNA sequencing was performed at the Unidad de Biología Molecular, Instituto de Fisiología Celular, UNAM. Protein concentration was determined by the bicinchoninic acid method or by absorbance at 280 nm for pure GlTIM (ε280 = 26600 M^-1cm^-1). The TIM activity was determined at 25°C by a coupled assay, following the decrease in absorbance at 340 nm. The standard reaction mixture contained 100 mM triethanolamine/10 mM EDTA, pH 7.4 (TE buffer), 1 mM GAP, 0.2 mM NADH, and 0.9 units of α-GDH (20 μg/mL); the reaction was initiated by addition of 5 ng/mL of WT, C222V or C222M GlTIM, 10 ng/mL of C222N, 20 ng/mL of C222D or C222F, and 200 ng/mL of C222K. Kinetic, binding and stability data were analyzed by non-linear regression calculations with Origin software.
Determination of Km and Vmax was performed by fitting initial velocity data at GAP concentrations ranging from 0.3 to 3 mM to the Michaelis-Menten equation (v = Vmax•S/Km+S) by non-linear regression calculations. The kcat was derived from Vmax by considering a molecular mass for the monomer of 27.7 kDa. The Ki for 2-phosphoglycolate (2-PG) was calculated by global fit of initial velocity curves (GAP from 0.3 to 3 mM) obtained at different fixed concentrations of the inhibitor. Prior to fitting collectively the data to the simple competitive inhibition equation (v = Vmax•S/Km(1+I/Ki)+S), individual data were plotted as double reciprocal plots to confirm competitive inhibition.
Regarding C222D (Giardia duodenalis; C222D), the Km – broadly, the substrate concentration at which the rate is half of its maximum – was 4880 ± 810 µM; the Vmax (in general, the top rate of the reaction or transport when substrate is in excess) amounted to 3720 µmol/min/mg; the turnover number (kcat) (in general, the number of substrate molecules converted per active site and unit of time at saturation) stood at 3330 s⁻¹.

On to C222V (Giardia duodenalis; C222V), for which the Km came out at 960 ± 120 µM, the maximal velocity (Vmax) was 9560 µmol/min/mg and the kcat was determined as 8670 s⁻¹.

Turning to C222N (Giardia duodenalis; C222N), the Km was determined as 2790 ± 730 µM, the Vmax stood at 3650 µmol/min/mg and the kcat is 3320 s⁻¹.

For the substance C222K (Giardia duodenalis; C222K), the Michaelis constant (Km) came out at 3100 ± 640 µM, the Vmax is 255 µmol/min/mg and the kcat came to 217 s⁻¹.

For C222F (Giardia duodenalis; C222F), the Km came to 3900 ± 460 µM, the maximal velocity (Vmax) turned out to be 1660 µmol/min/mg and the kcat was determined as 1500 s⁻¹.

As for C222M (Giardia duodenalis; C222M), the Km is 1850 ± 460 µM, the maximal velocity (Vmax) was determined as 3100 µmol/min/mg and the kcat turned out to be 2800 s⁻¹.
